In US20110239319, “Use of Endonucleases for Inserting Transgenes Into Safe Harbor Loci” (published 2011):

Columns and labels:
Experiment in all cases: cell_activity; endogenous locus, 293H
[1] = target: T1, SCOH-SH3-b1-C (artificial)
T1 chain: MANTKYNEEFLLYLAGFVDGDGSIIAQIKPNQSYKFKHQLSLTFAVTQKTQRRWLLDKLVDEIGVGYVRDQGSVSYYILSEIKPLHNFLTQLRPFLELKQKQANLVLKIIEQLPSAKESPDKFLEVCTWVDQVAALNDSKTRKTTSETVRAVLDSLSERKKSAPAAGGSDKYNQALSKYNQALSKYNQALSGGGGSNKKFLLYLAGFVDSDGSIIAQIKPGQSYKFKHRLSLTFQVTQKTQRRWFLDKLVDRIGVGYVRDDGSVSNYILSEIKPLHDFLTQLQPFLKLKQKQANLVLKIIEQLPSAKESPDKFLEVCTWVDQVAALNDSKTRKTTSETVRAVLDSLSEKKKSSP
Procedure: (§1) Human embryonic kidney 293H cells (Invitrogen) were plated at a density of 1×10⁶ cells per 10 cm dish in complete medium (DMEM supplemented with 2 mM L-glutamine, penicillin (100 UI/ml), streptomycin (100 μg/ml), amphotericin B (Fongizone) (0.25 μg/ml) (Invitrogen-Life Science) and 10% FBS). The next day, cells were transfected with 3 μg of single-chain meganuclease expression vector using Lipofectamine 2000 transfection reagent (Invitrogen) according to the supplier's protocol. After 2 to 6 days of incubation at 37° C., cells were trypsinized and genomic DNA extraction was performed with the DNeasy blood and tissue kit (Qiagen) according to the supplier's protocol.
(§2) Human embryonic kidney 293H cells were transfected with a plasmid expressing a single-chain safe harbor meganuclease. After 2 to 6 days of incubation at 37° C., genomic DNA was isolated and PCR was used to amplify the genomic sequence surrounding the meganuclease target site. Sequences were then analyzed for the presence of insertions or deletions events (InDel) in the cleavage site of each safe harbor target.

[2] = target: T2, SCOH-SH4-b1-C (artificial)
T2 chain: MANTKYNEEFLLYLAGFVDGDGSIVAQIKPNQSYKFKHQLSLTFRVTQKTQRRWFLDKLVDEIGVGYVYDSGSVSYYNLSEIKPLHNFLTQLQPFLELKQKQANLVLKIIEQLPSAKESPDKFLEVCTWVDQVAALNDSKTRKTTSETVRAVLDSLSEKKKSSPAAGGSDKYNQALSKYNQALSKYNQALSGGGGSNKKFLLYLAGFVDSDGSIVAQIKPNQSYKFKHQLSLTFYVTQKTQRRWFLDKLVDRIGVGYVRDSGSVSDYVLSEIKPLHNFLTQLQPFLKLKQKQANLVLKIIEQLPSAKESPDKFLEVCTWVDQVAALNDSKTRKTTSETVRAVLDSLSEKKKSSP
Procedure: as §1, §2

[3] = target: T3, SCOH-SH19 (artificial)
T3 chain: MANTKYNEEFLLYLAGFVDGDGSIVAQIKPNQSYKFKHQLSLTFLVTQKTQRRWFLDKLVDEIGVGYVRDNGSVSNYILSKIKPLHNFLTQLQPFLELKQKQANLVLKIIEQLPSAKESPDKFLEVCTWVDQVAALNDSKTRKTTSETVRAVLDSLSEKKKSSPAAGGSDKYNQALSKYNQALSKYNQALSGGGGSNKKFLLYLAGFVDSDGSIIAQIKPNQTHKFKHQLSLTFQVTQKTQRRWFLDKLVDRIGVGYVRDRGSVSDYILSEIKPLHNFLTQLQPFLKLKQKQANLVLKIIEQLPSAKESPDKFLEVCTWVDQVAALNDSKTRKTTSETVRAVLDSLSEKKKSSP
Procedure: as §1, §2

[4] = target: T4, SCOH-SH31.2 (artificial)
T4 chain: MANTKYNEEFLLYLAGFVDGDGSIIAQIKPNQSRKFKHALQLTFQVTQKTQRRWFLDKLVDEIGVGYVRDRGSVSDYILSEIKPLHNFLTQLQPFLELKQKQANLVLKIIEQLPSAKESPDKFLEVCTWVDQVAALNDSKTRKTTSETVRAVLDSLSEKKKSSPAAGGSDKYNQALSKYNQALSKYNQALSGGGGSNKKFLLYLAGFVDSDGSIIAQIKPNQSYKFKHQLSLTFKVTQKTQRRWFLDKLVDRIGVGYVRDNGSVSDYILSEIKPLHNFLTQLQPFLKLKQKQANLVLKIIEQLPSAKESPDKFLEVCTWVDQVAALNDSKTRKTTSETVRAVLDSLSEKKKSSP
Procedure: as §1, §2

[5] = target: T5, SCOH-SH39-b11-C (artificial)
T5 chain: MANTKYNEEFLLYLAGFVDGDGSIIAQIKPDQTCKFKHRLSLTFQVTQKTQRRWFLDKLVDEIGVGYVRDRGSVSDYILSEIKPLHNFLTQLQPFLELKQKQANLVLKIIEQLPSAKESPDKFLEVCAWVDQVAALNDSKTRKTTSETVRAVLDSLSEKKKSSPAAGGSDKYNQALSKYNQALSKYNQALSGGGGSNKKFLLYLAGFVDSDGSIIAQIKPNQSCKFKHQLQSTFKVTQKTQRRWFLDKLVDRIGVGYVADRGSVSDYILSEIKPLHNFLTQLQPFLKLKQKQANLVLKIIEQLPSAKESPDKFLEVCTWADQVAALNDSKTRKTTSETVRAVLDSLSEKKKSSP
Procedure: as §1, §2

[6] = target: T6, SCOH-SH41-b11-C (artificial)
T6 chain: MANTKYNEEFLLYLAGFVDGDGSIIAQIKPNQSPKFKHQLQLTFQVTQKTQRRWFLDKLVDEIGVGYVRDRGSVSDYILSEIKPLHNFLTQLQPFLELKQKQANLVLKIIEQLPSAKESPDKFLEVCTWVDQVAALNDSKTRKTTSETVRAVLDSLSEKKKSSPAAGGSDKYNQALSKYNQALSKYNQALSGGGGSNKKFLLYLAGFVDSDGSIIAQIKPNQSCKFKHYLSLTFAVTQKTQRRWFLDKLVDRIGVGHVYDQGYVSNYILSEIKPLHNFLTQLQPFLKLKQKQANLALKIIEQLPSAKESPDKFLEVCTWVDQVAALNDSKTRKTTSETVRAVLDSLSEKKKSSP
Procedure: as §1, §2

[7] = target: T7, SCOH-SH42-b11-C (artificial)
T7 chain: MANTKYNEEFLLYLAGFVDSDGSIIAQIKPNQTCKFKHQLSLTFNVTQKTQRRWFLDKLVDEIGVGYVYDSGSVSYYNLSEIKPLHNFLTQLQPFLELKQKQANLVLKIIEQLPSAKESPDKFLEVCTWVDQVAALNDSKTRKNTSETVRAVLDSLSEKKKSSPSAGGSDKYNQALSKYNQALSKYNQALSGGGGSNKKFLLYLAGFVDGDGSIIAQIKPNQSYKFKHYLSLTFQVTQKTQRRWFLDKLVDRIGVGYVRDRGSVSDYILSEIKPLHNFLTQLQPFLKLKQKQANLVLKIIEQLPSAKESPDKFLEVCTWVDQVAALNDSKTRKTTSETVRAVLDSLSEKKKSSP
Procedure: as §1, §2

[8] = target: T8, SCOH-SH43-b12-C (artificial)
T8 chain: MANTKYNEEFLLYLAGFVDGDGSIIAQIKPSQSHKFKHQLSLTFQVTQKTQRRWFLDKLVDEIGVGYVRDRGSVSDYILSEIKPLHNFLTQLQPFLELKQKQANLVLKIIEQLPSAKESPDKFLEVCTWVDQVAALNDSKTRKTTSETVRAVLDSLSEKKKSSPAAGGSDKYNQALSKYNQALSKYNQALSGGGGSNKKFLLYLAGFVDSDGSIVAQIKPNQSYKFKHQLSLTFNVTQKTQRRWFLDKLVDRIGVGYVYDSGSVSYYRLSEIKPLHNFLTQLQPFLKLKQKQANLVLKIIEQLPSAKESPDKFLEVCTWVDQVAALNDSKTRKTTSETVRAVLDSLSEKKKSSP
Procedure: as §1, §2

[9] = target: T9, SCOH-SH44-b11-C (artificial)
T9 chain: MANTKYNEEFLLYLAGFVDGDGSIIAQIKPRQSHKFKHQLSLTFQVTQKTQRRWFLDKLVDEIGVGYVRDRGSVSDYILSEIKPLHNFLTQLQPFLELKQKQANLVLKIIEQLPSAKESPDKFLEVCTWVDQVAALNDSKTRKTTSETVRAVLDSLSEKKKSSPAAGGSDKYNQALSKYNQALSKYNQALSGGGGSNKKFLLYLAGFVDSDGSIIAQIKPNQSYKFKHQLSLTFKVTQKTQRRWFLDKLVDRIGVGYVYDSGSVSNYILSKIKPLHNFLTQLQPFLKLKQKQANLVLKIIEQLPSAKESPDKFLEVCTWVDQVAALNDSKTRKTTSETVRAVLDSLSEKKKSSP
Procedure: as §1, §2

[10] = target: T10, SCOH-SH52-b12-C (artificial)
T10 chain: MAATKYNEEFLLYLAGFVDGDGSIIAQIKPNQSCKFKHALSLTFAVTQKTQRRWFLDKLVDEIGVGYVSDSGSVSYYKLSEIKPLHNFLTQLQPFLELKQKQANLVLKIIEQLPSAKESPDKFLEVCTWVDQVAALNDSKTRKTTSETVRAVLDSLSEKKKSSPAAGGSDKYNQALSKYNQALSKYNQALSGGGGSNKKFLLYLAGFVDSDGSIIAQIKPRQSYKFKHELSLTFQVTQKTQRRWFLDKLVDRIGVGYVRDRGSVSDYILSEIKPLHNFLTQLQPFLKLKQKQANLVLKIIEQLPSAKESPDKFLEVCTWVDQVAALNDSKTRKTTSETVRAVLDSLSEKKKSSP
Procedure: as §1, §2

B1: SH3 target (dsDNA)
DNA 1: CCAATACAAGGTACAAAGTCCTGA
DNA 2: TCAGGACTTTGTACCTTGTATTGG
Q: B1 was tested. Which activity [1] did it give?
A: 0.8 % InDels

B2: SH4 target (dsDNA)
DNA 1: TTAAAACACTGTACACCATTTTGA
DNA 2: TCAAAATGGTGTACAGTGTTTTAA
Q: How did the activity [2] turn out when B2 was run?
A: 0.2 % InDels

B3: SH19 target (dsDNA)
DNA 1: GCAAAACATTGTAAGACATGCCAA
DNA 2: TTGGCATGTCTTACAATGTTTTGC
Q: For B3, which activity [3] is on record?
A: 0.9 % InDels

B4: SH31 target (dsDNA)
DNA 1: TTGTAATGTCTTACAAGGTTTTAA
DNA 2: TTAAAACCTTGTAAGACATTACAA
Q: B4 was tested. Which activity [4] did it give?
A: 5 % InDels

B5: SH39 target (dsDNA)
DNA 1: TCCTTCTGTCTTAAGAGATTTATC
DNA 2: GATAAATCTCTTAAGACAGAAGGA
Q: For B5, which activity [5] is on record?
A: 1.5 % InDels

B6: SH41 target (dsDNA)
DNA 1: CCTCTCTTAGGTGAGACGGTACAT
DNA 2: ATGTACCGTCTCACCTAAGAGAGG
Q: With B6 as the binder, how does the activity [6] read?
A: 0.4 % InDels

B7: SH42 target (dsDNA)
DNA 1: TATATCCCATGTGAGACATGCAGT
DNA 2: ACTGCATGTCTCACATGGGATATA
Q: Which activity [7] does the source give for B7 here?
A: 0.7 % InDels

B8: SH43 target (dsDNA)
DNA 1: TAAATACGTCTTACATTATTTTGC
DNA 2: GCAAAATAATGTAAGACGTATTTA
Q: For B8, which activity [8] is on record?
A: 0.4 % InDels

B9: SH44 target (dsDNA)
DNA 1: AAGAAATGTCTCACAGAATTTTAC
DNA 2: GTAAAATTCTGTGAGACATTTCTT
Q: Which activity [9] does the source give for B9 here?
A: 3.6 % InDels

B10: SH52 target (dsDNA)
DNA 1: CTCCACTGTCTTACCTAATCCAGC
DNA 2: GCTGGATTAGGTAAGACAGTGGAG
Q: Which activity [10] does the source give for B10 here?
A: 3.2 % InDels
